Test results published in patent publication US20020039577A1 (published 2002).
One block for each binder: values may come before it.

Legend:
L104EA29YIg [1] = biological target: T1, L104EA29YIg (human, UniProt P16410 38-161; P01857 99-330 = IgG part, A29Y; L104E); experiment: flow cytometry on human CD80-transfected CHO cells
T1 construct: extracellular domain;domain: hinge, CH2 and CH3 regions of IgC1; Same mobility as dimeric CTLA4Ig; Positions count from methionine +1, not on the UniProt precursor; also called double-site CTLA4 mutant molecule; ATCC PTA-2104
T1 sequence (P16410 other isoform, or with tags, fused parts or gaps A29Y/L104E): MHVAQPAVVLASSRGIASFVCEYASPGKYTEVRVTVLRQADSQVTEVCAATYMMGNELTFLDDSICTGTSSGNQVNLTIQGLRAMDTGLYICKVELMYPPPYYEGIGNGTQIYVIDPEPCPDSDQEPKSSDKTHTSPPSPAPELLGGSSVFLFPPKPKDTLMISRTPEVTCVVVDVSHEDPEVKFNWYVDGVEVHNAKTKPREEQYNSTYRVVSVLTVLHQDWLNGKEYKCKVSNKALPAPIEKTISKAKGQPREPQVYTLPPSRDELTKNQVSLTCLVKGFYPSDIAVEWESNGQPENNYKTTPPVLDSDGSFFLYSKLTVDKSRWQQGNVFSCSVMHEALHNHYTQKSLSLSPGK
Method: (§1) Bound immunoglobulin fusion protein was detected using fluorescein isothiocyanate-conjugated goat anti-human immunoglobulin.
(§2) Binding on a total of 5,000 viable cells was analyzed (single determination) on a FACScan, and mean fluorescence intensity (MFI) was determined from data histograms using PC-LYSYS.

L104EA29YIg [2] = biological target: T1, L104EA29YIg; experiment: flow cytometry on human CD86-transfected CHO cells
Method: as §1, §2

binding result (L104EA29YIg [1]): binds
B1: human CD80 on stably transfected CHO cells (ligand, UniProt P33681 35-288, looked up)
chain: VIHVTKEVKEVATLSCGHNVSVEELAQTRIYWQKEKKMVLTMMSGDMNIWPEYKNRTIFDITNNLSIVILALRPSDEGTYECVVLKYEKDAFKREHLAEVTLSVKADFPTPSISDFEIPTSNIRRIICSTSGGFPEPHLSWLENGEELNAINTTVSQDPETELYAVSSKLDFNMTTNHSFMCLIKYGHLRVNQTFNWNTTKQEHFPDNLLPSWAITLISVNGIFVICCLTYCFAPRCRERRRNERLRRESVRPV
notes: whole, on cells; also called CD80-positive CHO cells; CD80+ CHO cells

binding result (L104EA29YIg [2]): binds
B2: human CD86 on stably transfected CHO cells (ligand, UniProt P42081 24-329, looked up)
chain: APLKIQAYFNETADLPCQFANSQNQSLSELVVFWQDQENLVLNEVYLGKEKFDSVHSKYMGRTSFDSDSWTLRLHNLQIKDKGLYQCIIHHKKPTGMIRIHQMNSELSVLANFSQPEIVPISNITENVYINLTCSSIHGYPEPKKMSVLLRTKNSTIEYDGVMQKSQDNVTELYDVSISLSVSFPDVTSNMTIFCILETDKTRLLSSPFSIELEDPQPPPDHIPWITAVLPTVIICVMVFCLILWKWKKKKRPRNSYKCGTNTMEREESEQTKKREKIHIPERSDEAQRVFKSSKTSSCDKSDTCF
notes: whole, on cells; also called CD86-positive CHO cells; CD86+ CHO cells
